± gives the standard deviation of the averaged measurements.
System: ATP
Test: switch fluorescence ratio, 500 uM ATP over buffer (Cy3 cluster intensity, sum of 5 cycles each) (fold (ratio)); higher = stronger signal-on switching upon ATP binding; sequences stand for … in TCGTCGGCAGCGTCAGATGTGTATAAGAGACAGTTTTTTTTTTTTTTTTTTTTTTTTT…TC
Conditions: aptamer strand: ATP DNA aptamer (quencher-CACCTGGGGGAGTATTGCGGAGGAAGG + anchor), 100 nM annealed; ATP concentration: 500 uM
Procedure, shortened: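 Imaging in selection buffer was followed by imaging after 15 min with 500 uM ATP at 22 °C, for Cy3-labelled switching-strand clusters annealed to 100 nM quencher-labelled ATP aptamer on a modified Illumina MiSeq flow-cell. Five of these buffer/ATP cycles ran, separated by NaOH stripping and re-annealing. The fluorescence ratio per cluster is summed target-cycle over summed buffer-cycle Cy3 intensity, averaged per switch-domain sequence; clusters outside 100-1000 RFU were removed.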
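Note: ATP exposure 15 min at 22 °C before imaging.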

Sequence	switch fluorescence ratio
TTAAAGAATT	1.003 ± 0.0084
GGGTAGGGGA	1 ± 0.049
TGGTGGCTTA	0.9827 ± 0.0025
GGACGGAAGA	1.101 ± 0.01
GGGGCCGATA	1.04 ± 0.079
TCCGGGGTCG	1.034 ± 0.0062
GGAACAGAGG	0.9769 ± 0.007
ACTAGGAATC	1.04 ± 0.019
GGTCTTGTTG	1.02 ± 0.036
ACGTCTGAGG	1.02 ± 0.029
GTCGTCTTTT	1.01 ± 0.012
TAAGTATGCC	0.963 ± 0.06
AGATACTGCA	1.05 ± 0.0087
TGGTTGGGAC	0.9953 ± 0.0089
AAGGCGGGTA	1 ± 0.021
GCTCTGGGTA	1.05 ± 0.0082
TATTTATATT	1.06 ± 0.029
AATGGGTTGA	0.9743 ± 0.0053
TCTGTTAGGA	1 ± 0.035
TTGGATCCGC	1.32 ± 0.45
TTCATCGAGC	1.019 ± 0.0076
GGGCGAAGGG	0.987 ± 0.032
AAGGTTTAGT	1 ± 0.024
GCCGGCAATT	1.01 ± 0.015
CCCATGCTTA	1.046 ± 0.003

Sequence	switch fluorescence ratio
TGCGCTATGT	1.07 ± 0.022
CTGCGGTGGG	1.006 ± 0.0051
AATTACTTTT	1.02 ± 0.02
TTCGAGAGGG	0.981 ± 0.028
GGTTTTGATT	0.998 ± 0.0089
TGATTGAAGC	1.03 ± 0.032
TAAGATCTGA	1.02 ± 0.051
GAAGCGCCGG	1.01 ± 0.028
AAGGTTACTC	1.01 ± 0.029
CCCGAGGGGT	1.019 ± 0.0065
GACGTAATTA	1.5 ± 0.045
ACCGGGATGC	3.66 ± 0.26
AAGTACAGGC	1.27 ± 0.12
CCTGGGGGTC	1.03 ± 0.024
AAGGGACAGT	1.03 ± 0.016
AGCCATATTT	1.04 ± 0.028
GCATTCGGAT	1.01 ± 0.014
GACACACAAA	1.18 ± 0.11
AGGCGAGTTA	0.9937 ± 0.0054
GGTACTTAGG	1.06 ± 0.031
GCATGTGGGC	0.967 ± 0.01
GGTCTTGAGG	1.01 ± 0.028
TGAGCTGAGG	0.957 ± 0.049
CAATCAATCG	1.05 ± 0.017
GAGAGTGACT	0.969 ± 0.0083

Sequence	switch fluorescence ratio
ATAAATGTTA	0.999 ± 0.011
GGCTGCATGC	1.08 ± 0.023
TCGTAACACT	1.16 ± 0.0057
AAGGCTGGTG	1.02 ± 0.015
GGGGTGGCTG	0.955 ± 0.023
TTCTGAACGT	1 ± 0.015
GCTGTGTTTT	1 ± 0.034
GGAGCAGGCG	1.04 ± 0.04
AAAAGAAGCA	0.948 ± 0.026
AGGCTGAGCT	0.979 ± 0.051
TGGGATTTTG	1.014 ± 0.0028
AGCTGAAGAC	1.25 ± 0.097
GCGGTGGGTG	0.994 ± 0.023
TACGAAATGT	1.041 ± 0.0098
TGGTTAATCG	0.9949 ± 0.0079
GGGTGATATT	0.996 ± 0.026
TTGCTATTCG	0.992 ± 0.05
TTCAATAGAA	0.998 ± 0.0029
GAATAAAGTT	0.986 ± 0.046
GGGGTGAGTA	0.98 ± 0.053
AAGTTGTCTG	0.978 ± 0.056
CGTATTGCGT	1.01 ± 0.025
GAGGCGACTG	1.03 ± 0.031
ATGAAGGGAA	0.999 ± 0.017
ATTTTGGCAA	1.42 ± 0.3

Sequence	switch fluorescence ratio
TAGAATGTT	1.01 ± 0.015
TGTGGCAGGT	0.982 ± 0.031
GGTTTGTGCT	0.94 ± 0.051
ATAGGATGTG	1.01 ± 0.023
TTAGGGAGGG	0.998 ± 0.032
GATTAATGGC	1.04 ± 0.052
TTTTAACTTC	1 ± 0.014
AATTAAGTGT	0.969 ± 0.021
ATGGCAAGGT	1.02 ± 0.065
TTAAAATGGG	1.01 ± 0.043
TTTGCAGAAT	1.006 ± 0.0094
GGGGTCCGGT	1.06 ± 0.14
ATCGAAGCCA	1.091 ± 0.0016
ACGCCGTGTG	0.999 ± 0.022
TAATTGGGAA	0.997 ± 0.035
AGGGAATAGC	1.01 ± 0.011
TTTAACGGGA	1.15 ± 0.17
AATAGGGGTG	1.01 ± 0.043
ATTTAAATTA	1.01 ± 0.017
TGCAGCATGA	1.333 ± 0.008
GATTACATTT	1.03 ± 0.022
CAGTCATTTT	0.984 ± 0.031
AATTAAGAGA	1.04 ± 0.017
AATTAATCCA	0.997 ± 0.017
AACGACAATT	1.118 ± 0.0016

Sequence	switch fluorescence ratio
TTTTCGTGCA	1.03 ± 0.046
CCTTGTAGGG	1.02 ± 0.03
GGTTTATTAT	1.02 ± 0.017
TTATCCAATT	0.9804 ± 0.0089
TTTAATACGT	1.023 ± 0.0034
CAGGTTCTAC	1.015 ± 0.0032
TATACTAGTT	1.04 ± 0.033
TATGTACTAG	1.049 ± 0.0089
TCGTTATCTT	0.979 ± 0.013
GGGGGGCCAT	1.01 ± 0.025
AGATTAGCGC	0.9812 ± 0.0063
TTTTAGAAA	1.02 ± 0.07
GGTTTGTAGG	0.954 ± 0.02
TGTATAAGGT	0.966 ± 0.023
TAATAATTGG	1.04 ± 0.057
AGCGGAGTTT	0.984 ± 0.031
GGCTATGGGT	1.02 ± 0.024
TGGGTGATCG	1.03 ± 0.067
TAATTCAGGG	1.03 ± 0.032
TGTTGGGAGA	1 ± 0.025
GGATTGAGGT	1.02 ± 0.032
TCGTCGCTTT	1.04 ± 0.026
ATGGGGTGTG	1 ± 0.018
ATTTCGTTTC	1.05 ± 0.1
AAATTTGTGT	0.999 ± 0.051

Sequence	switch fluorescence ratio
GATGTGGGTT	1.03 ± 0.032
CGGGGGGGAG	1.01 ± 0.067
GGGTATAAGA	0.9976 ± 0.0075
GTAAAAGTCG	1.03 ± 0.015
TTTTTTAGCG	0.99 ± 0.029
CAGTTAAAAA	1.03 ± 0.012
TTTGGGCTTG	1.013 ± 0.0054
TTGTTAGGAT	1.07 ± 0.062
ATTTGAGGTT	1.006 ± 0.005
CGTGGAACGA	1.01 ± 0.058
TGCAACTTTT	1.01 ± 0.019
CATATTCCTA	0.999 ± 0.035
GGGAAGGTAT	0.992 ± 0.017
GGGTGCGGGC	1.04 ± 0.098
CCTCGGGGGG	1.06 ± 0.1
TAGTAGGTTG	0.979 ± 0.04
CGAGGGTGTT	1.05 ± 0.077
TGCATAGGGA	1.01 ± 0.035
TACAGAGTTT	0.977 ± 0.015
TCGAAGAGTT	0.994 ± 0.033
TAAGGATGGT	0.997 ± 0.01
TAGTGGCTGG	1 ± 0.026
AAATCAATGT	1.02 ± 0.035
TATAACATGT	0.997 ± 0.026
ATAGGGCCAG	1.06 ± 0.067

Sequence	switch fluorescence ratio
GGTGTTGTCT	1.031 ± 0.0061
GACTGCTGTG	1.012 ± 0.0085
TGTGATAGTT	0.999 ± 0.015
CAGGGCTATG	1.01 ± 0.016
TTGGCTGTAG	1.13 ± 0.13
TATTCAGTGC	1.01 ± 0.046
GGTTTGCACG	0.992 ± 0.042
ATCCGTAGGT	0.995 ± 0.029
TTGGGCAGCA	0.99411 ± 0.00084
CGGAGGAGC	1.02 ± 0.016
GGAATTGCA	0.958 ± 0.022
GTTTAATTTT	0.987 ± 0.033
TTGTCGTGTG	1 ± 0.033
ATCTGGAATA	1.24 ± 0.039
CCGGGCAGAG	1.96 ± 0.071
GGTCCTACTG	1.01 ± 0.017
ATAAATACAG	0.9959 ± 0.0042
TCGTTGATTT	1.016 ± 0.01
GGGGTGGCGC	0.964 ± 0.036
TTTTTAGATT	1.02 ± 0.031
ACATGATGGC	1.05 ± 0.018
GTTTATTTCT	1.02 ± 0.049
ATGGCCGGTT	1.04 ± 0.013
TGTTTTCAGT	0.975 ± 0.02
TTGGGGGAAC	1 ± 0.014

Sequence	switch fluorescence ratio
TGATTGGGGG	0.989 ± 0.031
TATGGTTAAT	0.982 ± 0.016
ATGTACGAGA	1.06 ± 0.019
TATTGAGGGG	1 ± 0.038
TTCTTAGAGT	1.02 ± 0.016
ACCTCGGACC	1.09 ± 0.022
GAGGCATTGT	1.05 ± 0.017
GACAGGGTTG	1.001 ± 0.0062
TGGGTGGAGA	1.02 ± 0.021
TGGGTTGGGG	1.01 ± 0.049
GATCATGTAC	1.14 ± 0.036
CTTTTGGGAC	0.987 ± 0.025
AACTTGGGTG	1.02 ± 0.035
TTTATCGAGC	1.02 ± 0.027
ACATGTTGTT	0.993 ± 0.024
CGAAGGCGTA	1.027 ± 0.0062
CTCGATTGTA	0.999 ± 0.048
AAGGGTTGCG	0.985 ± 0.024
CGAATGGGGA	0.992 ± 0.077
AAGCGGCTCG	0.996 ± 0.03
AGGGGGCTGT	0.994 ± 0.03
ACTCATTTGG	1.001 ± 0.0087
GGGGGGACTG	1.06 ± 0.077
TGCGTTTGTT	0.996 ± 0.029
ATGTGCTCTA	0.9692 ± 0.0047

— the supplement of paper PMC10126150
